The DeepSol protein solubility set

assay: soluble on expression in E. coli; label from the status in PepcDB or PDB records

Row | Sequence | soluble on expression in E. coli
1 | MPLSYYEKGIMYKRKNFMGPAVKCFEEARKLEEKVGSKASLELAKIYAYFKDYEEAYKYCKEAISKSNYIEAYYLMVRILLLSNTPINEILKKAGKVKIHNSLLADIFCFEGNYEVALKIIDTCLKEDEVTRDLELIKIKCLLKLKQYDKCKDYIDNFSQSYLYFFKIRMYKVICCVLLEEYRLAWKIIDEFDYKKLSLYNKNKLKAYINFYNAALDIRGITPHENDEEYYSCIFEIIDILLATKEIKCLKKLIQTISKYDGGYLELAELYSNYGYVSEAKKLIVLYIKKFEVVNNKMIYILQKLEHHHHHH | not soluble
2 | MDITNIKEMNYEEVFSITITVDKPILIGQDDIVGRRQLIPIISGKVSGNNFNGKVLPGGIDSQIVRPDGKCELSARYAIRLDDGAAIYIENNGIRTVPDEYIEAVKSGEFVDPNAYYFRTIPTFETYSPKYKWMMNHIFVCCASRLPENVLLKFYKIS | soluble
3 | MAHHHHHHMLLSVLHAPRQASIAAPLHKVQSCAYAAPDTVSAVLADCLGKDIAPVLRYLTAFATPPVSKPTSHQSHHLAASTRVLRHALVLLLYSFVTTWRGAPPRETPPPPGAIALTREERALALELCRCVAALNESDTGSESIATGERRGDTSAQAHSRDARAEATGSHVTSLEAVTGAQFALVRDALADMLAPDHHSDGSAASTPVRARDSVAGNGPLWRACEAWIAGAVGTAVGASVAPPSSPFAGITGVRMKEEEAVDLLERVNDQLNQIARGGAVNAASRQCGNSAAMP | not soluble
4 | MDLTELFAFLSIPSVSTDPARREDVRRAALWLEERLKARGFRTELHETPLHPILYAERFVDEKAPTVLVYGHYDVQPPDPLELWESPPFSPVVREGRIYARGAFDDKGQLFAHVLAAEEAPVNLKFLVEGEEEIGSPHLPPFVRANREKLRADVVLVSDGAMFAPHTPTLTYGLRGLCYLEVRLRGARRDLHSGAFGGVAPNPIQALGWLLARLKDEGTGRVLIPGFYERVRPVPEEEKALWPSLDEEALKRELGVEILPGEEGYAPLERLWARPTLDPNGIWGGYQGEGSKTVIPAEAGMKLSMRLVPDQDPEEVADQAEAYLKAVCPPGYALEVRRLHGGRPVLTDPFSPPMRLMARALEEVWGRPPVYTREGGTIPVVAELKETLGAPIVLLGLGLPDDNLHAPNEKLDLVNLEKGVEVIRRFHRLLAG | soluble
5 | SPFMFRPRKQVFQTQGAAVSSMAQTLLPNDLASKAMGSAFTALLDANEDAQKAMKIIKTLSSLSDAWENVKETLNNPEFWKQLLSRCVQLIAGMTIAVMHPDPLTLLCLGTLTAAEITSQTSLCEEIAAKFKTIFITPPPRFPTISLFQQQSPLKQVNDIFSLAKNLDWAVKTVEKVVDWFGTWIVQEEKEQTLDQLLQRFPEHAKRISDLRNGMAAYVECKESFDFFEKLYNQAVKEKRTGIAAVCEKFRQKHDHATARCEPVVIVLRGDAGQGKSLSSQVIAQAVSKTIFGRQSVYSLPPDSDFFDGYENQFAAIMDDLGQNPDGSDFTTFCQMVSTTNFLPNMASLERKGTPFTSQLVVATTNLPEFRPVTIAHYPAVERRITFDYSVSAGPVCSKTEAGYKVLDVERAFRPTGEAPLPCFQNNCLFLEKAGLQFRDNRTKEIISLVDVIERAVARIERKKKVLTTVQTLVAQ | soluble
6 | MGSDKIHHHHHHAAGQPRLVKSLVPDMPSQAPDYFCTWNLQGYVASYKSTELTRAAMTEDYLFGDGLYQNWVDCYPAIRKDLYFVMDDSWDIPKDVNDSPNLYLGCVELSSDRFPSFRGDAVERLKQLSEQIKSKGWKGVGGWICAQKAETHAAIPEEEYWKQRIKAANAAGFDYWKVDWGKEDRNGEWRRKLTAIGKRYAPHLYIEHALRNEFIEFSDVFRTYDVENITAQPITIRRICDLLPYKTVEGAKGIINCEDEPYIAVGLGCAIGVMRHPFAETLPDGAQDFVFPPVGRDIKRRLDEVVRGVRWHRIAEPFAVGYGTFAIDSVKLTDHWILQENETWNKGRTVGADVTADAPARVARNMKLPEVSGAPLSVCPFVLASRYPNGAVAVSTIGRNVGREYVTEKVAVSISVDRWDIPIGLFGYFKEVTMVFPSPLKTGKHTVFAQDLAGENPVDITSNVVIKDNRLIIPGEVISRVGLMNASEGDCSDPGMVIRVM | not soluble
7 | MMRMKVKVVVNGKEYEVEVEEVMPGKFRVTLEGETYEVETSAGFVTSPKQVQVPTPAPTPAPAPTPTPAPAPSSKTVVSENVVSAPMPGKVLRVLVRVGDRVRVGQGLLVLEAMKMENEIPSPRDGVVKRILVKEGEAVDTGQPLIELG | soluble
8 | ATPSRKQRVSTLWISDVHLGTRDCQAEHLSAFLKRYQADKVYLVGDIIDGWKLRGGMYWPQAHTNVIRRLLTMSKRGTEVIYVTGNHDEFLRRYSKLVLGNIQLVDEAEHVTAEGRRLLVIHGDQFDVITRYHRWLAFLGDSAYEFTLTLNRWLNHWRAKYGYGYWSLSAYLKHKVKSAVNFISDFEEAIAHECVKRGLDGVVCGHIHHAEIRQVGGVEYLNCGDWVESCTALIEHLDGTIELFRLADAHLKASQPV | not soluble
9 | MSRRVEFDLSTEDHSDRRRTNTFSSDEDGVPNEVADYLVYFSRMVDEQNVPEILTLYDQAFPDLTERFFRDRMWPDENVVERIIGPGNKLFIILYKELYYRQLYARNTRGPLLVHRYESFMNYQELFSELLSSKDPIPLSLPNVWLWDIIDEFVYQFQAFCLYKANPGKRNADEVEDLINIEENQNAWNIYPVLNILYSLLSKSQIVEQLKALKEKRNPDSVADEFGQSDLYFKLGYFALIGLLRTHVLLGDYHQALKTVQYVDIDPKGIYNTVPTCLVTLHYFVGFSHLMMRNYGEATKMFVNCLLYIQRTKSVQNQQPSKKNFQYDVIGKTWDQLFHLLAICLAIQPQRIDESIASQLSERCGERMMHMANGNIDEFRNAFATGCPKFLSPTTVVYEGVNQSKEPLLRQTQSFLEGIESQMALPVLRGYLKLYTTLPTKKLASFMDVDDEHYDSFIGKLLTYKMIVNELGKEAGPSSADDDEPQTDIDFYVDRDMINIADTKVARHVGEHFIRHIQKLQEVQDVLKRLDIQKP | not soluble
10 | MSLELKVSLDNITMTAYIKSKKYLAMKQLIETHLAITVQTAMTDMFRATTGDGIHVVLHMNYDKQKGQDRKARPFRLEFNPNKLRLVDSEIIDTIIPFLEDISISRADLAFDLFEVDCSEFVLEKKGRPTATKEFRSSTGTLETKYLGAPRSEKQVRLYNKKKEQLQNGTDKDKDFASQFKHWWRLEFQLRSRSIDEIFEVIDTIIFKPFNLKGLSIETQIYLTALIHDKNIWKKLHRNTRARYKKILETHQTSDTDYLGLLKDLLKHERPRLENQLAYYGGRIDKNSFQPFCEGHHHHHH | soluble
11 | MKKMNHVLQVLMLSASLVASPFTYANEEKGLEIAQERKARDEGWGDSIATMEMILKNAQGESSTRLMRLKSLEVEGDGDKGLTIFDQPRDVTGTAFLNHSHTIGADDQWLYLPALKRVKRISSRNKSGPFMGSEFAYEDLSSFEIEKYRFNHLKDEKFNGQDVFVLEQIPTDKNSGYTKQVVWLDKAHYRPLKVEFYDRKGALLKTLTFANYKQYLDKYWRAHTMAMTNHQTGKSTELNTSDLRFQTGLEENDFNKNVLKRVK | not soluble
12 | MGSDKIHHHHHHMTKRAYQYRFYPTPEQAQLLARTFGCVRFVYNAVLRYRTDAFYQRQERIGYVEANAYLTRMKKADETAFLNEVSSVPLQQCLRHQQAAFKHFFEGRARYPAFKNKRHRQAAEFTRSAFKYRNGQLFLAKCKEPLAIRWSRELPSEPTTITISKDSAGRYFVSCLCEFTPETLPVTPRMTGIDLGLKDLFITDQGERIGNPRHTAKYAARLAKAQRRLSKKKLGSANRAKARKRVARLHAKISDCRMDRLHKLSRRLINENQVVCVESLKVKNMLRNPSLAKAIADAGWGEFARQLEYKAQWAGRQLVRIDPWYPSSKRCSDCGHIKDALPLSVRAWDCPACGVTHDRDINAARNIKAAGLAVLALGENVSGMEPVSVSGSR | not soluble
13 | MTEASEINLSDIKGPIDVNTPITNHRTALIQNYSTKPKLTYQTVFGVNGPLVIVHNVKFPMFNEIVKITLPNGQIRMGQVLESSKNKAVVQVFEGTTGVDAKFTTCEFTGDIFRSPVSLDMLGRIFNGSGKPIDKGPPVLPEDYLDINGQPINPFNRIYPEEMIQTGISAIDVMNSIARGQKIPIFSAAGLPHNEIAAQIVRQGGLVQLPGRNNETVNFAIVFAAMGVNMETARFFKQDFEECGSMDNVCLFLNLANDPTIERIITPRIALTAAEFFAYHCGKHVLVVLTDMSSYAEALREISAAREEVPGRRGFPGYMYTDLATIYERAGRVKGREGSITQIPILTMPNNDITHPIPDLTGYITEGQIYIDKQLHKRLIYPPIDVLPSLSRLMKSAVGEGMTREDHSDLSNQLYACYAMGKDVQAMKAVVGVEALSPDDLLYLEFLAKFEKNFIAQGRYENRTIVESLNIGWELLRIFPREMLKRIPETLLEKYYKRKKQ | not soluble
14 | MSNTQHKLDKTRPPRVQITYDVETGDAETAKELPLVIGVLGEYSSSEKPLRERKFISIDKDNFDEVMASMSPTAHFMVDSVIPGNEGKLDVELRFSCKDDFSPDNVIQQVECLRKLSELRLHLCDLRNRAASNEKLKEKLQELLVTTNGNPENDESKE | not soluble
15 | MKLEFNLIIAGVGGQGGLTLSRIIGNAAMIEGYRVRIGETLGMSQRYGSVLSYLRFGEEVYSPLIEEGKADLMLALEPVEALRNARFLSRKSYAIINAYPIHTATTLVGKERYPDLEEIKEAIGKICRVEMRNFQEEADKINPRTLGVLMTGFAWRKGLLPLKKESIIEGIKLTLREKLWDINFRAFERGVELASL | soluble
16 | MAHHHHHHMLQRSFVVRWVPRYIRQVPRVRQKKEQRDAVAMGRSKAPSKRRAECSAVSERDGGVARAAQAKRLEITEEGSTVLESPVSDVSRLLLRKAETLLDSWQKLNMTMTISGSRSDSLMGMKNSSSSQKRDAVAFMAQTEVFAVVKGMIHLSTPHEGSLNRCEEDNKHDSLRQNAFQEYRSTNIISGMVVIPDEATNDAVNYLAQIGRHRVGKVQDKVASLDDSFPISSAIFSLHEVVVFLELYNAMDCEDGELLLRLLEELRRIVFSTEKEIRTENHVLRECEEGVIPRLLLTLSSLGIVEENVLQRIVAINDGSILSRATIARYPESDLIRLLVAFNRFGLHHEPCFHVTAKTLRRNSLRNPLKSFCRNAVNCRVDAAPLGDGEKRSRIPSSMAGLTMNELLEALTAIALSLCREREVVKLLAATIVTAVEDEEYMRCSTKEKAKTREEDLGLLRTLQVHRAAKVCEQMDMPQPSLAHLLHRLSIRYGGLLADGGDVSLSPERVGFYDFITADLVKARCS | not soluble
17 | MGSDKIHHHHHHRECVQTSLSWRNDTTGIWETAGWWNSANVLTATIRYGAVTKDPAIPSVIEDVFEKARHYQVGVDSTGTPRYCDNFINDYYDDEGWWALAWIEASKLTGEKKYLDMAEIIFDDMTTGWSDACGGGIFWKKNPLHYKNSIANNLFSLTAIRLYKATQNPAYLDWFKKNVDWYMRTGMINTNIYQIEDGTKDDCTPNRNAHYTYNQGVAIAVLAEMYLQTNDKSYLELAEKIADATITTQLITDEGILREMKPEIDDSNDGVQFKGIFIRHLAFLYEVTKNPAYKDFILKNAESIITKDYDPTSKSFGCYWYGPFHKENSAANACALECVIEAYDLTK | not soluble
